We go through 1 molecule from publication doi:10.1101/2024.01.10.575016, “Cell Cycle Regulation has Shaped Budding Yeast Replication Origin Structure and Function” (bioRxiv, 2024).

Assay [1] has as its target T1, Mcm3 (budding yeast, UniProt P24279 1-971).
T1 construct: Mcm3, budding yeast
Description: cryo-EM structure; MCM loading reaction on nucleosome-flanked ARS1 DNA (15 nM) with CDK-phosphorylated Orc6-4A ORC (40 nM) and MCM-Cdt1 (80 nM), 2.2 mM ATP, 30°C 30 min; SH and DH particles from the same data. The note with it: both partners purified.

Assay [2] concerns the target T2, Mcm4 (budding yeast, UniProt P30665 1-933).
T2 construct: Mcm4, budding yeast
T2 sequence: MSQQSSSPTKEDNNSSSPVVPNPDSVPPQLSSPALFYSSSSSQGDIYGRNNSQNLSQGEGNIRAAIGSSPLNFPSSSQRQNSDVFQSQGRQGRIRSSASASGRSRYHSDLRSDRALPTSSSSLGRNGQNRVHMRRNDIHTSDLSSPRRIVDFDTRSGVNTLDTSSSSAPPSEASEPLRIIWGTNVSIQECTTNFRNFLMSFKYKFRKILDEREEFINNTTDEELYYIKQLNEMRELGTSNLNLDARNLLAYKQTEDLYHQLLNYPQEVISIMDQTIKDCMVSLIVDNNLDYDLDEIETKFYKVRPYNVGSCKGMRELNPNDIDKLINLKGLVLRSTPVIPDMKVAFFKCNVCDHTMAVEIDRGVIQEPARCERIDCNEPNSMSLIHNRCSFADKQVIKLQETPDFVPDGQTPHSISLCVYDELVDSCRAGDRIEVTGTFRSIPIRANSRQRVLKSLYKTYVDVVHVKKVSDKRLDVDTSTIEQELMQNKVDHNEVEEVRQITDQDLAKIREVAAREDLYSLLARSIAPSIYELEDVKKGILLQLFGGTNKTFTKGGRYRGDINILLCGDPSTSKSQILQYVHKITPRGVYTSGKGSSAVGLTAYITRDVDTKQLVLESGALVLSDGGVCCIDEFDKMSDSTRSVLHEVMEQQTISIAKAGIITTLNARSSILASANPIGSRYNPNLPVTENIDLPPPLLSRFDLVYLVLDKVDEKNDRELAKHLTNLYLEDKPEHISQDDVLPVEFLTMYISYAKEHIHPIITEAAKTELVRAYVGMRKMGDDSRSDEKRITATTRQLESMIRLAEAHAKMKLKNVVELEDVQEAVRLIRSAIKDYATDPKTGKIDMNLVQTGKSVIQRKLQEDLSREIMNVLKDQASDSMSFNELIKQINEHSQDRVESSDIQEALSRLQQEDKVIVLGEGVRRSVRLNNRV
The description is as above. Particulars: both partners purified.

T1 sequence (P24279 whole entry): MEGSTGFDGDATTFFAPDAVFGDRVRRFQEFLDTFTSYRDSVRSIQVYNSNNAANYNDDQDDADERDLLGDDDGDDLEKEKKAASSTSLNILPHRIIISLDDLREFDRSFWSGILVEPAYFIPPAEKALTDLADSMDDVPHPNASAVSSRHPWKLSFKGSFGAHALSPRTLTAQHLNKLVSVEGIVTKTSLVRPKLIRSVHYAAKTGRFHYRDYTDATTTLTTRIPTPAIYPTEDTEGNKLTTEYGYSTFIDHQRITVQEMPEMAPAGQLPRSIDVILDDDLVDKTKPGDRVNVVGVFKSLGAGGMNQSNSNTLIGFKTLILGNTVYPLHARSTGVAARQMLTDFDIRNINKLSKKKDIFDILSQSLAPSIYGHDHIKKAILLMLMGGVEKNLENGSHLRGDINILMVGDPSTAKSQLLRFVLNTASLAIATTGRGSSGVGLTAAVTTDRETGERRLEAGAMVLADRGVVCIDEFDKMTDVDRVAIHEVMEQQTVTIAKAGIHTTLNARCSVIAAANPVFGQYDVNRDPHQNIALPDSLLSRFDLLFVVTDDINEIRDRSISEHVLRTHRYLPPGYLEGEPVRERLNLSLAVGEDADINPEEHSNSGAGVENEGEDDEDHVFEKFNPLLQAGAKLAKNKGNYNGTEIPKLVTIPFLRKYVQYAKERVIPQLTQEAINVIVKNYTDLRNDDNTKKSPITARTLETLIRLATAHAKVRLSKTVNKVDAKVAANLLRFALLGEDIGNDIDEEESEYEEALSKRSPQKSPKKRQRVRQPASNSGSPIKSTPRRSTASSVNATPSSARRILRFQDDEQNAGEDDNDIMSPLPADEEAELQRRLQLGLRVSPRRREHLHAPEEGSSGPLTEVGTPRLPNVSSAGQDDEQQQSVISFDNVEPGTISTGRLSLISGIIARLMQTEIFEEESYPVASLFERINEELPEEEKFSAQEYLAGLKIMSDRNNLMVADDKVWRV

B1: Mcm7 (natural protein, budding yeast)
chain: MSAALPSIQLPVDYNNLFNEITDFLVTFKQDTLSSDATRNENEDENLDAENIEQHLLEKGPKYMAMLQKVANRELNSVIIDLDDILQYQNEKFLQGTQADDLVSAIQQNANHFTELFCRAIDNNMPLPTKEIDYKDDVLDVILNQRRLRNERMLSDRTNEIRSENLMDTTMDPPSSMNDALREVVEDETELFPPNLTRRYFLYFKPLSQNCARRYRKKAISSKPLSVRQIKGDFLGQLITVRGIITRVSDVKPAVEVIAYTCDQCGYEVFQEVNSRTFTPLSECTSEECSQNQTKGQLFMSTRASKFSAFQECKIQELSQQVPVGHIPRSLNIHVNGTLVRSLSPGDIVDVTGIFLPAPYTGFKALKAGLLTETYLEAQFVRQHKKKFASFSLTSDVEERVMELITSGDVYNRLAKSIAPEIYGNLDVKKALLLLLVGGVDKRVGDGMKIRGDINVCLMGDPGVAKSQLLKAICKISPRGVYTTGKGSSGVGLTAAVMKDPVTDEMILEGGALVLADNGICCIDEFDKMDESDRTAIHEVMEQQTISISKAGINTTLNARTSILAAANPLYGRYNPRLSPLDNINLPAALLSRFDILFLMLDIPSRDDDEKLAEHVTYVHMHNKQPDLDFTPVEPSKMREYIAYAKTKRPVMSEAVNDYVVQAYIRLRQDSKREMDSKFSFGQATPRTLLGIIRLSQALAKLRLADMVDIDDVEEALRLVRVSKESLYQETNKSKEDESPTTKIFTIIKKMLQETGKNTLSYENIVKTVRLRGFTMLQLSNCIQEYSYLNVWHLINEGNTLKFVDDGTMDTDQEDSLVSTPKLAPQTTASANVSAQDSDIDLQDA
notes: Mcm7, budding yeast
With B1, the binding result in assay [1] and in assay [2] was “binds” in each case.
